Tests used:
[1] = biological target: HLA-E loaded with Peptide 12 (…) on 721.174 cells (human (endogenous in 721.174 cells) | Epstein-Barr virus (B95.8 laboratory strain)) (UniProt P13747)
[2] = biological target: HLA-E loaded with Peptide 9 on 721.174 cells (human (endogenous in 721.174 cells) | Epstein-Barr virus (B95.8 laboratory strain)) (UniProt P13747)
[3] = biological target: HLA-E loaded with Peptide 19 on 721.174 cells (human (endogenous in 721.174 cells) | Epstein-Barr virus (B95.8 laboratory strain)) (UniProt P13747)

Measured: cytotoxicity of sorted NKG2A+NKG2C- NK cells against peptide-pulsed 721.174 cells, E:T 3:1, 5 h

NKG2A/CD94 receptor on primary human NK cells (from UniProt P26715;Q13241)
> 80%: [1] | [2] | [3]

Reference: publication PMC7673117
